Article PMC9482650, “Quantitative fragmentomics allow affinity mapping of interactomes” (Nature Communications, 2022)
Changes are numbered by the printed parent chain.

T1: DFNB31_3, Q9P202
T1 sequence (Q9P202 811-907, limits assumed, looked up): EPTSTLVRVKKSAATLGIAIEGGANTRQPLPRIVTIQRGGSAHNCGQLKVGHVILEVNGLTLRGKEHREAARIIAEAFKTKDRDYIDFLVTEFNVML

T2: GRIP1_4, Q9Y3R0
T2 sequence (Q9Y3R0 467-571, limits assumed, looked up): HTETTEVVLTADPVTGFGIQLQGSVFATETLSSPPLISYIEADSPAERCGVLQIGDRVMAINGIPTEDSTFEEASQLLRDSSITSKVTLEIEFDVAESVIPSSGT

T3: GRIP1_7, Q9Y3R0
T3 sequence (Q9Y3R0 999-1096, limits assumed, looked up): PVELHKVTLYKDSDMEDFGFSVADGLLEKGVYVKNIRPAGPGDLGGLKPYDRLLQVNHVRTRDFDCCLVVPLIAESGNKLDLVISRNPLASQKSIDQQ

T4: LIN7A, O14910
T4 sequence (O14910 103-200, limits assumed, looked up): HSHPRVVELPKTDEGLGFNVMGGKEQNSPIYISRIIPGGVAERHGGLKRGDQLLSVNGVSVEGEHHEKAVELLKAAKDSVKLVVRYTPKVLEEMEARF

T5: LIN7C, Q9NUP9
T5 sequence (Q9NUP9 88-185, limits assumed, looked up): T4 sequence (O14910 103-200, limits assumed, looked up) with D13E, V20I, V40I, E42D, K77Q, D78G, S79K, A96S

T6: MPDZ_5, O75970
T6 sequence (O75970 695-796, limits assumed, looked up): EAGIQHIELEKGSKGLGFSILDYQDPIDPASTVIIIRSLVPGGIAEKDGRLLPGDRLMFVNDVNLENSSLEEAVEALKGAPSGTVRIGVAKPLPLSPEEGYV

T7: NHERF3_3, Q5T2W1
T7 sequence (Q5T2W1 238-333, limits assumed, looked up): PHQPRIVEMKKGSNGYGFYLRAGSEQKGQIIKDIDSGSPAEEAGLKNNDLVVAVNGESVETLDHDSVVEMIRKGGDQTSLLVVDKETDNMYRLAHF

T8: PDZD2_2, O15018
T8 sequence (O15018 329-429, limits assumed, looked up): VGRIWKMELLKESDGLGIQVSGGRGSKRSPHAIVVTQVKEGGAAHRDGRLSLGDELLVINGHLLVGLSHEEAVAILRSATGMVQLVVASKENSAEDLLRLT

T9: PTPN13_1, Q12923
T9 sequence (Q12923 1088-1188, limits assumed, looked up): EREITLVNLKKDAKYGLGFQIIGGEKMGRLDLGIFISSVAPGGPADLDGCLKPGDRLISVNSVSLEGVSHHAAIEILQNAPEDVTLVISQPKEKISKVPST

T10: RAPGEF6, Q8TEU7
T10 sequence (Q8TEU7 525-625, limits assumed, looked up): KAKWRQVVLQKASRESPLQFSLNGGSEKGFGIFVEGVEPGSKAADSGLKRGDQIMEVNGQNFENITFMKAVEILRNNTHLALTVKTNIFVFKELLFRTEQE

T11: SNTB1, Q13884
T11 sequence (Q13884 107-205, limits assumed, looked up): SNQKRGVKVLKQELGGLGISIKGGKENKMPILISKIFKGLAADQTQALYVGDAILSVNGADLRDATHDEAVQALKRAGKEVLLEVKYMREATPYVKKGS

T12: SNTG1, Q9NSN8
T12 sequence (Q9NSN8 52-150, limits assumed, looked up): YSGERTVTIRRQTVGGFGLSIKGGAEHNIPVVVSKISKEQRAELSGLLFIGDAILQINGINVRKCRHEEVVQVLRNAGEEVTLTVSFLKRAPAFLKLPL

T13: SYNJ2BP, P57105
T13 sequence (P57105 8-110, limits assumed, looked up): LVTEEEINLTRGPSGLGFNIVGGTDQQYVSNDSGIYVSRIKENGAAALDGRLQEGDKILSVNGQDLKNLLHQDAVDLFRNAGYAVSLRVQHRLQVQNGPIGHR


What follows are binders tested against AHNAK1, Q09666 (assay: holdup assay). Settings: plain residues with an end cap or a label only (N-terminal biotin on a linker: ado-ado).
Sequence of AHNAK1, Q09666 (Q09666 4-100): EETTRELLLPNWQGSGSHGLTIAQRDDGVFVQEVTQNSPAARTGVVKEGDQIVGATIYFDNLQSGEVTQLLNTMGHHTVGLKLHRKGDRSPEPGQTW
Design: key: below the threshold = too weak to quantify, mostly under pKd 3.1 to 4

Binder	pKd
PAPGQHTTQI [STK16, O75716]	below the threshold
DSATVRTYSC [PPFIA1, Q13136]	below the threshold

These binders were tested against T1, DFNB31_3, Q9P202 (assay: holdup assay). Settings: plain residues with an end cap or a label only (N-terminal biotin on a linker: ado-ado).
Design: key: below the threshold = too weak to quantify, mostly under pKd 3.1 to 4

Binder	pKd
PAPGQHTTQI [STK16, O75716]	4.23
DSATVRTYSC [PPFIA1, Q13136]	3.51

These binders were tested against FRMPD2_2, Q68DX3 (assay: holdup assay). Settings: plain residues with an end cap or a label only (N-terminal biotin on a linker: ado-ado).
Sequence of FRMPD2_2, Q68DX3 (Q68DX3 944-1038): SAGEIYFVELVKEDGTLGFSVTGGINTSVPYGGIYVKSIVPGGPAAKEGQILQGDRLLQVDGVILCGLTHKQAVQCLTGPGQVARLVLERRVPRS
Design: key: below the threshold = too weak to quantify, mostly under pKd 3.1 to 4

Binder	pKd
PAPGQHTTQI [STK16, O75716]	3.48
DSATVRTYSC [PPFIA1, Q13136]	below the threshold

These binders were tested against FRMPD3, Q5JV73 (assay: holdup assay). Settings: plain residues with an end cap or a label only (N-terminal biotin on a linker: ado-ado).
Sequence of FRMPD3, Q5JV73 (Q5JV73 12-100): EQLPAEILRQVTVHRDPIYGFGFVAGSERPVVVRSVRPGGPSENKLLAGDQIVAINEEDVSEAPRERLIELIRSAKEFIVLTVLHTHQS
Design: key: below the threshold = too weak to quantify, mostly under pKd 3.1 to 4

Binder	pKd
PAPGQHTTQI [STK16, O75716]	below the threshold
DSATVRTYSC [PPFIA1, Q13136]	below the threshold

What follows are binders tested against GORASP2, Q9H8Y8 (assay: holdup assay). Settings: plain residues with an end cap or a label only (N-terminal biotin on a linker: ado-ado).
Design: key: below the threshold = too weak to quantify, mostly under pKd 3.1 to 4

Binder	pKd
PAPGQHTTQI [STK16, O75716]	3.54
DSATVRTYSC [PPFIA1, Q13136]	3.62

The binders below were run against GRID2IP_1, A4D2P6 (assay: holdup assay). Settings: plain residues with an end cap or a label only (N-terminal biotin on a linker: ado-ado).
Sequence of GRID2IP_1, A4D2P6 (A4D2P6 1-87): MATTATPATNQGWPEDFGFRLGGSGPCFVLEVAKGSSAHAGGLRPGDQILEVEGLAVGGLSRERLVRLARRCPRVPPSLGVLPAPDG
Design: key: below the threshold = too weak to quantify, mostly under pKd 3.1 to 4

Binder	pKd
PAPGQHTTQI [STK16, O75716]	below the threshold
DSATVRTYSC [PPFIA1, Q13136]	below the threshold

Each binder was assayed against T2, GRIP1_4, Q9Y3R0 (assay: holdup assay). Settings: plain residues with an end cap or a label only (N-terminal biotin on a linker: ado-ado).
Design: key: below the threshold = too weak to quantify, mostly under pKd 3.1 to 4

Binder	pKd
PAPGQHTTQI [STK16, O75716]	below the threshold
DSATVRTYSC [PPFIA1, Q13136]	below the threshold

Each binder was assayed against T3, GRIP1_7, Q9Y3R0 (assay: holdup assay). Settings: plain residues with an end cap or a label only (N-terminal biotin on a linker: ado-ado).
Design: key: below the threshold = too weak to quantify, mostly under pKd 3.1 to 4

Binder	pKd
PAPGQHTTQI [STK16, O75716]	below the threshold
DSATVRTYSC [PPFIA1, Q13136]	below the threshold

The binders below were run against Inadl_5, Q8NI35 (assay: holdup assay). Settings: plain residues with an end cap or a label only (N-terminal biotin on a linker: ado-ado).
Sequence of Inadl_5, Q8NI35 (Q8NI35 673-780): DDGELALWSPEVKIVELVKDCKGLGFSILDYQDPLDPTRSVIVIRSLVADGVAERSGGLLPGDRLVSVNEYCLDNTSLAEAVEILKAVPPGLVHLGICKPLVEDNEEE
Design: key: below the threshold = too weak to quantify, mostly under pKd 3.1 to 4

Binder	pKd
PAPGQHTTQI [STK16, O75716]	below the threshold
DSATVRTYSC [PPFIA1, Q13136]	below the threshold

Each binder was assayed against T4, LIN7A, O14910 (assay: holdup assay). Settings: plain residues with an end cap or a label only (N-terminal biotin on a linker: ado-ado).
Design: key: below the threshold = too weak to quantify, mostly under pKd 3.1 to 4

Binder	pKd
PAPGQHTTQI [STK16, O75716]	below the threshold
DSATVRTYSC [PPFIA1, Q13136]	below the threshold

What follows are binders tested against T5, LIN7C, Q9NUP9 (assay: holdup assay). Settings: plain residues with an end cap or a label only (N-terminal biotin on a linker: ado-ado).
Design: key: below the threshold = too weak to quantify, mostly under pKd 3.1 to 4

Binder	pKd
PAPGQHTTQI [STK16, O75716]	3.98
DSATVRTYSC [PPFIA1, Q13136]	below the threshold

What follows are binders tested against LNX1_3, Q8TBB1 (assay: holdup assay). Settings: plain residues with an end cap or a label only (N-terminal biotin on a linker: ado-ado).
Sequence of LNX1_3, Q8TBB1 (Q8TBB1 500-596): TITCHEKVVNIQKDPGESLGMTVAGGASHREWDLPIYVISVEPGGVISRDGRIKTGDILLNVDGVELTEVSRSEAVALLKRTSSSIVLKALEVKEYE
Design: key: below the threshold = too weak to quantify, mostly under pKd 3.1 to 4

Binder	pKd
PAPGQHTTQI [STK16, O75716]	below the threshold
DSATVRTYSC [PPFIA1, Q13136]	below the threshold

The binders below were run against MAGI2_5, Q86UL8 (assay: holdup assay). Settings: plain residues with an end cap or a label only (N-terminal biotin on a linker: ado-ado).
Sequence of MAGI2_5, Q86UL8 (Q86UL8 915-1017): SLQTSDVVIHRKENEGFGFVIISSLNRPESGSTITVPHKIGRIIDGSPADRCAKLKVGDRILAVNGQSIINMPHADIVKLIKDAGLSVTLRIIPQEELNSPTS
Design: key: below the threshold = too weak to quantify, mostly under pKd 3.1 to 4

Binder	pKd
PAPGQHTTQI [STK16, O75716]	below the threshold
DSATVRTYSC [PPFIA1, Q13136]	below the threshold

These binders were tested against MAST2, Q6P0Q8 (assay: holdup assay). Settings: plain residues with an end cap or a label only (N-terminal biotin on a linker: ado-ado).
Sequence of MAST2, Q6P0Q8 (Q6P0Q8 1099-1202): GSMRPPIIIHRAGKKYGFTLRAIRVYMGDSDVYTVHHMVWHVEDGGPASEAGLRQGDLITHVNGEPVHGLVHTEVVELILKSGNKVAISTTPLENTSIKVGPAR
Design: key: below the threshold = too weak to quantify, mostly under pKd 3.1 to 4

Binder	pKd
PAPGQHTTQI [STK16, O75716]	5.27
DSATVRTYSC [PPFIA1, Q13136]	3.98

These binders were tested against T6, MPDZ_5, O75970 (assay: holdup assay). Settings: plain residues with an end cap or a label only (N-terminal biotin on a linker: ado-ado).
Design: key: below the threshold = too weak to quantify, mostly under pKd 3.1 to 4

Binder	pKd
PAPGQHTTQI [STK16, O75716]	below the threshold
DSATVRTYSC [PPFIA1, Q13136]	below the threshold

These binders were tested against T7, NHERF3_3, Q5T2W1 (assay: holdup assay). Settings: plain residues with an end cap or a label only (N-terminal biotin on a linker: ado-ado).
Design: key: below the threshold = too weak to quantify, mostly under pKd 3.1 to 4

Binder	pKd
PAPGQHTTQI [STK16, O75716]	below the threshold
DSATVRTYSC [PPFIA1, Q13136]	below the threshold

Each binder was assayed against T8, PDZD2_2, O15018 (assay: holdup assay). Settings: plain residues with an end cap or a label only (N-terminal biotin on a linker: ado-ado).
Design: key: below the threshold = too weak to quantify, mostly under pKd 3.1 to 4

Binder	pKd
PAPGQHTTQI [STK16, O75716]	3.91
DSATVRTYSC [PPFIA1, Q13136]	3.7

The binders below were run against PICK1, Q9NRD5 (assay: holdup assay). Settings: plain residues with an end cap or a label only (N-terminal biotin on a linker: ado-ado).
Sequence of PICK1, Q9NRD5 (Q9NRD5 17-115): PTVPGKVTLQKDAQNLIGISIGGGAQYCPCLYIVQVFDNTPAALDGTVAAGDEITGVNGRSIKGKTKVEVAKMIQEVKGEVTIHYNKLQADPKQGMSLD
Design: key: below the threshold = too weak to quantify, mostly under pKd 3.1 to 4

Binder	pKd
PAPGQHTTQI [STK16, O75716]	4.07
DSATVRTYSC [PPFIA1, Q13136]	4.15

The binders below were run against T9, PTPN13_1, Q12923 (assay: holdup assay). Settings: plain residues with an end cap or a label only (N-terminal biotin on a linker: ado-ado).
Design: key: below the threshold = too weak to quantify, mostly under pKd 3.1 to 4

Binder	pKd
PAPGQHTTQI [STK16, O75716]	below the threshold
DSATVRTYSC [PPFIA1, Q13136]	below the threshold

Each binder was assayed against T10, RAPGEF6, Q8TEU7 (assay: holdup assay). Settings: plain residues with an end cap or a label only (N-terminal biotin on a linker: ado-ado).
Design: key: below the threshold = too weak to quantify, mostly under pKd 3.1 to 4

Binder	pKd
PAPGQHTTQI [STK16, O75716]	3.49
DSATVRTYSC [PPFIA1, Q13136]	below the threshold

The binders below were run against T11, SNTB1, Q13884 (assay: holdup assay). Settings: plain residues with an end cap or a label only (N-terminal biotin on a linker: ado-ado).
Design: key: below the threshold = too weak to quantify, mostly under pKd 3.1 to 4

Binder	pKd
PAPGQHTTQI [STK16, O75716]	3.57
DSATVRTYSC [PPFIA1, Q13136]	below the threshold

The binders below were run against T12, SNTG1, Q9NSN8 (assay: holdup assay). Settings: plain residues with an end cap or a label only (N-terminal biotin on a linker: ado-ado).
Design: key: below the threshold = too weak to quantify, mostly under pKd 3.1 to 4

Binder	pKd
PAPGQHTTQI [STK16, O75716]	below the threshold
DSATVRTYSC [PPFIA1, Q13136]	below the threshold

What follows are binders tested against T13, SYNJ2BP, P57105 (assay: holdup assay). Settings: plain residues with an end cap or a label only (N-terminal biotin on a linker: ado-ado).
Design: key: below the threshold = too weak to quantify, mostly under pKd 3.1 to 4

Binder	pKd
PAPGQHTTQI [STK16, O75716]	3.51
DSATVRTYSC [PPFIA1, Q13136]	below the threshold

These binders were tested against TJP1_3, Q07157 (assay: holdup assay). Settings: plain residues with an end cap or a label only (N-terminal biotin on a linker: ado-ado).
Sequence of TJP1_3, Q07157 (Q07157 416-512): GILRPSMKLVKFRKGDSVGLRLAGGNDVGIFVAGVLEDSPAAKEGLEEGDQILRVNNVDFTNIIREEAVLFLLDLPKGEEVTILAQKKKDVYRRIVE
Design: key: below the threshold = too weak to quantify, mostly under pKd 3.1 to 4

Binder	pKd
PAPGQHTTQI [STK16, O75716]	below the threshold
DSATVRTYSC [PPFIA1, Q13136]	below the threshold
